Measurements published in PMC2939592, “Laser ablation-based one-step generation and bio-functionalization of gold nanoparticles conjugated with aptamers”.

Molecular target: PSMA (prostate-specific membrane antigen) (human, UniProt Q04609 1-750)
Test: tissue microarray staining with silver enhancement; 1 mM MgCl2, 1 mM CaCl2; epithelial staining similar to anti-PSMA antibody; extra smooth muscle staining; miniStrep: 50 mM Tris-Cl pH 8.0, 150 mM NaCl, 10 mM MgCl2, room temperature (16 h in solution); anti-PSMA: 20 mM HEPES pH 7.4, 150 mM NaCl, 1 mM MgCl2, 1 mM CaCl2, 0.05% Tween 20, 20 C
Settings: protein: native; chain copies: 2; label: AuNP

Sequence of PSMA (prostate-specific membrane antigen) (Q04609 whole entry): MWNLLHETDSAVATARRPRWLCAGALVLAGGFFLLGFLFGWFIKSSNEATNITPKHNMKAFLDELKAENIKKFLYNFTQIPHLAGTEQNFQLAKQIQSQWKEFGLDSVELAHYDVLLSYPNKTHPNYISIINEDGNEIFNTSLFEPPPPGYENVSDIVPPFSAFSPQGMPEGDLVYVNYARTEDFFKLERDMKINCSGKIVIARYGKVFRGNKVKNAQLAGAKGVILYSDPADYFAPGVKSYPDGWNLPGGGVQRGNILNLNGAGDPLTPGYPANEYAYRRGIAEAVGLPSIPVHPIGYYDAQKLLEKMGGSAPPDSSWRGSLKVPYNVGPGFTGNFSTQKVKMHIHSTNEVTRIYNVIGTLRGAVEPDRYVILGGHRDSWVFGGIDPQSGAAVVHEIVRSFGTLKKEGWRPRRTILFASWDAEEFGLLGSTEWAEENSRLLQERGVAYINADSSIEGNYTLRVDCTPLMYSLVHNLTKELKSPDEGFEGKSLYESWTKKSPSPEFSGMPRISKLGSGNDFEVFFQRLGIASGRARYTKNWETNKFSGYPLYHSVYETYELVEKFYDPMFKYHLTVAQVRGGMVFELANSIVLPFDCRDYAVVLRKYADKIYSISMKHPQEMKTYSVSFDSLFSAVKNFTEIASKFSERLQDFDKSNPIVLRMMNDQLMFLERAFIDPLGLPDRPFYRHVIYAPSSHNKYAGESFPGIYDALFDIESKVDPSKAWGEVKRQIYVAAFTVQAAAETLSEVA

B1: anti-PSMA aptamer on AuNP (structured_RNA)
RNA: GGGAGGACGAUGCGGAUCAGCCAUGUUUACGUCACUCCUUGUCAAUCCUCAUCGGCAGACGACUCGCCCGA
modifications: 3'-(CH2CH2O)6-(CH2)6-S-S-(CH2)6OH, conjugated to gold nanoparticle; base/sugar modifications not stated
B1: binds.
